{"source": "paper PMC7755605", "about": "“The Interaction of TRAF6 With Neuroplastin Promotes Spinogenesis During Early Neuronal Development” (Frontiers in Cell and Developmental Biology, 2020)", "binders": {"B1": {"name": "neuroplastin intracellular peptide containing the TRAF6 binding motif (peptide)", "chain": "EKRKRPDEVPDAGPMKTNSTNNHKDKNLRQRNTN", "modifications": "Peptide limits are not printed (possibly in the figure or supplement). The whole cytoplasmic tail is taken by convention from the UniProt topology; it should contain the printed motif RKRPDEVPD. …"}}, "target": "T1, N-terminally GST-tagged TRAF6 (mouse, UniProt P70196 1-530)", "T1 construct": "TNF receptor-associated factor 6 (TRAF6), mouse; amplified by PCR with primers from the start codon to the stop codon; 530 residues by the printed limits of the cc-c construct; also called GST-TRAF6; purified recombinant TRAF6; source: E. coli BL21 (DE3), purified (GST bulk kit); not shown: GST, N-terminal, kept", "T1 sequence (looked up)": "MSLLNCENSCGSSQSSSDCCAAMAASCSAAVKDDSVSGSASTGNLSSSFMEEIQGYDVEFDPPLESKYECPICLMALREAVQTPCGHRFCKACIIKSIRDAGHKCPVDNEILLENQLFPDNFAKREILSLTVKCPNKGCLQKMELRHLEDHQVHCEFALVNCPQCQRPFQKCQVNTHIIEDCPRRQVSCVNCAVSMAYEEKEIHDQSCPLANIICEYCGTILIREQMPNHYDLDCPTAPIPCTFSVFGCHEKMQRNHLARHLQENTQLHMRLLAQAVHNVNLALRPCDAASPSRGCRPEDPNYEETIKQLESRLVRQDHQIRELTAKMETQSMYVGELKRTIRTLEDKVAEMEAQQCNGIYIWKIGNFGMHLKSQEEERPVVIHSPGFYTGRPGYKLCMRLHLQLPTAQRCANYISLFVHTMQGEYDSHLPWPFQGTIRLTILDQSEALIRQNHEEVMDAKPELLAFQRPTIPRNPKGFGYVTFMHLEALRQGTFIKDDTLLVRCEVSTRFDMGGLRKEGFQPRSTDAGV", "assay": "SPR; BIACORE X100, single cycle kinetics; GST-TRAF6 amine-coupled on a CM5 chip, GST-coated sensor as reference; neuroplastin peptide injected at 2.5, 5, 100, 200 and 400 uM; HBS-P buffer", "details": "both partners purified", "data": [{"binder": "B1", "values": [{"measurement": "Kd", "result": 88, "unit": "µM"}, {"measurement": "stoichiometry N", "result": 1}]}]}
